For the experiment, the target named is 161P2F10b (UniProt O14638). The experiment in a line: saturation binding ELISA; relative affinity. A general note: An ELISA detects its analyte on a solid surface through an enzyme-linked reagent.

Turning to 97A6(CD203c), the Kd (commonly a measure of binding affinity in units of concentration) came out at 0.28 nM.

These data come from patent US20030206905A1.
